Results taken from US20260265359A1.
Where two headings read alike, the source gives them in different places. Blank lines part the entries; values can stand above or below the substance they belong to.

Experiments:
[1] = molecular target: human IL-6R overexpressed on engineered CHO-S cells (human) (UniProt P08887); assay: FACS competition: antibody with biotinylated human IL-6 and CHO-S cells overexpressing human IL-6R; blocked: IL-6 binding to IL-6R
[2] = molecular target: recombinant human Ang-2 (human) (UniProt O15123); assay: ELISA on plate-coated recombinant human Ang-2; anti-human IgG1-Fc-HRP, OD450
[3] = molecular target: T1, recombinant human PIGF (human) (UniProt P49763); assay: ELISA on plate-coated recombinant human PIGF; anti-human IgG1-Fc-HRP, OD450
T1 sequence (looked up): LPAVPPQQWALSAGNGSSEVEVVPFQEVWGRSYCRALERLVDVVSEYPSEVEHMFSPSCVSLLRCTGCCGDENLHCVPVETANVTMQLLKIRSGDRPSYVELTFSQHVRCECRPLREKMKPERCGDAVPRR

[4] = molecular target: recombinant human VEGF-A165 (human) (UniProt P15692); assay: ELISA on plate-coated recombinant human VEGF-A165; anti-human IgG1-Fc-HRP, OD450
[5] = molecular target: T1, recombinant human PIGF (human); assay: ELISA on plate-coated recombinant human PIGF; anti-human IgG1-Fc-HRP, OD450; remark: listed apart in the source
[6] = molecular target: T2, recombinant human VEGF-B167 (human) (UniProt P49765); assay: ELISA on plate-coated recombinant human VEGF-B167; anti-human IgG1-Fc-HRP, OD450
T2 sequence (looked up): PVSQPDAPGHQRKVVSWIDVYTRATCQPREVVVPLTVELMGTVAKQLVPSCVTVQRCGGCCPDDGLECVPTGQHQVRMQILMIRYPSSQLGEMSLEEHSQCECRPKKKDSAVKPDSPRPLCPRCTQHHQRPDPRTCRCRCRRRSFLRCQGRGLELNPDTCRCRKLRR

[7] = molecular target: T1, recombinant human PIGF (human); assay: SPR Biacore, 25 C; test antibody captured by anti-human IgG (Fc) on CM5 chip, target protein as analyte; 1:1 model
[8] = molecular target: T2, recombinant human VEGF-B167 (human); assay: as above
[9] = molecular target: recombinant human VEGF-A165 (human) (UniProt P15692); assay: as above
[10] = molecular target: T1, recombinant human PIGF (human); assay: as above; remark: listed apart in the source
[11] = molecular target: T2, recombinant human VEGF-B167 (human); assay: as above; remark: listed apart in the source
[12] = molecular target: recombinant human VEGF-A165 (human) (UniProt P15692); assay: as above; remark: listed apart in the source
[13] = molecular target: recombinant human VEGF-A165 (human) (UniProt P15692)
[14] = molecular target: recombinant human VEGF-A165 (human) (UniProt P15692); remark: listed apart in the source
[15] = molecular target: recombinant human VEGF-A165 (human) (UniProt P15692); remark: listed apart in the source

Sequence of recombinant human VEGF-A165 (human) (P15692 other isoform, or with tags, fused parts or gaps limits assumed): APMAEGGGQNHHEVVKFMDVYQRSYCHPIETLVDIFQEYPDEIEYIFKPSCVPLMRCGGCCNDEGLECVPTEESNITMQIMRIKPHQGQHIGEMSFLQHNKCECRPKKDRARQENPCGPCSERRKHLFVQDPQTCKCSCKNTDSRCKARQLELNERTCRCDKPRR
Sequence of Conbercept (Fc fusion) (chain): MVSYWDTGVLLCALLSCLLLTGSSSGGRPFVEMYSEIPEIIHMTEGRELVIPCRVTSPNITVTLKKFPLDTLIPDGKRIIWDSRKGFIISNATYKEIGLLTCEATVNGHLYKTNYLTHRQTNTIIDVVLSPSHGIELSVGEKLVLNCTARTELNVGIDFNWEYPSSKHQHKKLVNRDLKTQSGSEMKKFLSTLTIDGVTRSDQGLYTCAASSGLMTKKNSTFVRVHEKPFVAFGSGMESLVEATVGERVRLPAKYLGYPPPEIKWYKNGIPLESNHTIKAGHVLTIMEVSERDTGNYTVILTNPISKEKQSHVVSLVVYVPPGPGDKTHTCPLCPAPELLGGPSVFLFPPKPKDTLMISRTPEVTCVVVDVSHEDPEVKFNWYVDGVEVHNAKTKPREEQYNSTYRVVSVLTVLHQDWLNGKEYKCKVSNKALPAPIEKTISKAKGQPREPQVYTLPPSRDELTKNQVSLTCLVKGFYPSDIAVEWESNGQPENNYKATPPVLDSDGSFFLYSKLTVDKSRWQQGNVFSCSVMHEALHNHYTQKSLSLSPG
Sequence of Aflibercept (Fc fusion) (chain): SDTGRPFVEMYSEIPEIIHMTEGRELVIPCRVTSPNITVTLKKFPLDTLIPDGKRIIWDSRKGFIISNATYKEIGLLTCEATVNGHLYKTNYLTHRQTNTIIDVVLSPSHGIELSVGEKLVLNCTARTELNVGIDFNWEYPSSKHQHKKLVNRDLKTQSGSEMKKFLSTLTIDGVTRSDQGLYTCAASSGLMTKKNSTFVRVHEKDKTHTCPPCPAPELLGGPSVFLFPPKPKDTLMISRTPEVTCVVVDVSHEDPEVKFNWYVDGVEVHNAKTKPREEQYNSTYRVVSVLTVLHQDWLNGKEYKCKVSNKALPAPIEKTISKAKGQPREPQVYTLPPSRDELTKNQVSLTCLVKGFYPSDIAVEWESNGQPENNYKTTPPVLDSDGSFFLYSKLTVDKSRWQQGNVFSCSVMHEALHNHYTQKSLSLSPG
Sequence of recombinant human Ang-2 (human) (O15123 19-496 limits assumed): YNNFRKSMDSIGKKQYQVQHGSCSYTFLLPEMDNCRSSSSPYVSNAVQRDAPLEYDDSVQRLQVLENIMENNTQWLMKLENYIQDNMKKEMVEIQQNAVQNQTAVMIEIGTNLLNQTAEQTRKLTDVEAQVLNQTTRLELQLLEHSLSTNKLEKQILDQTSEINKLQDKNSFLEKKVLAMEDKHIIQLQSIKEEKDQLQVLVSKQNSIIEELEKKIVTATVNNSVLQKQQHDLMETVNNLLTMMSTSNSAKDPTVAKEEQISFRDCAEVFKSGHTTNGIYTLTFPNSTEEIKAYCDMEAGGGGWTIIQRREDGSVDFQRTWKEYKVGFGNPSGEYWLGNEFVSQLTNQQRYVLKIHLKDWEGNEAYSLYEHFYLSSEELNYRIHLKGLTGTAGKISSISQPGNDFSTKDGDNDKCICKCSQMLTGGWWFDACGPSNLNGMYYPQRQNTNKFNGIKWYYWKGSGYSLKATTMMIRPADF
Sequence of human IL-6R overexpressed on engineered CHO-S cells (human) (P08887 20-468, change not shown): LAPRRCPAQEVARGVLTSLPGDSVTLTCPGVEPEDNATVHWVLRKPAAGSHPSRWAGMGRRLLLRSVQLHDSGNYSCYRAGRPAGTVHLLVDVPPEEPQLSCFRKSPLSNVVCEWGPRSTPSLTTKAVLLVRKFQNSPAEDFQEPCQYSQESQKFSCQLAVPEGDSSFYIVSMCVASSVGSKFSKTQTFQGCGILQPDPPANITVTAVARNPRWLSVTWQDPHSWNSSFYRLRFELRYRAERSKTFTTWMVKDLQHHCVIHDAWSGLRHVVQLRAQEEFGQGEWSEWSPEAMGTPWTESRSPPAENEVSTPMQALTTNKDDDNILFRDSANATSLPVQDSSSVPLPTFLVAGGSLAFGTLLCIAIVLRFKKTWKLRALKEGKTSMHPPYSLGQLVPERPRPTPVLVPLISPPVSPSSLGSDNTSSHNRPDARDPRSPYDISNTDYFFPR

IC50 [1]: 0.524 nM
Substance: Vobarilizumab-Fc (Fc fusion)

EC50 [2]: 8.32 nM
Substance: Tie-2-Fc (Fc fusion)

EC50 [3]: 0.103 nM
EC50 [4]: 0.078 nM
EC50 [5]: 0.089 nM
EC50 [6]: 0.009 nM
Substance: Conbercept (Fc fusion)

EC50 [4]: 0.008 nM
EC50 [5]: 0.012 nM
Kd [7]: 0.148 nM
Kd [8]: 1.85 nM
Kd [9]: 0.00257 nM
Kd [10]: 0.106 nM
Kd [11]: 1.37 nM
Kd [12]: 0.00344 nM
IC50, inhibition of VEGF-A165-stimulated VEGFR-2 NF-AT luciferase reporter (HEK-293), luminescence [13]: 0.595 nM
EC50 [6]: 0.076 nM
IC50, inhibition of VEGF-A165-stimulated VEGFR-2 NF-AT luciferase reporter (HEK-293), luminescence [14]: 0.326 nM
IC50, inhibition of VEGF-A165-stimulated VEGFR-2 NF-AT luciferase reporter (HEK-293), luminescence [15]: 0.606 nM
Substance: Aflibercept (Fc fusion)
